Where “and” joins values, the source holds several entries; their conditions need not be identical. Identical values can stand only once.

The conditions of the data set: Equus caballus, pH 5, 15 °C, Abs, CD, Fluorescence, Sodium acetate 0.1 M, reversible: Yes.
[1] abbreviates: GdnHCl, transition: 3, structure 1AKK.

Sequence of Cytochrome c H34N, P00004 (P00004 whole entry H34N): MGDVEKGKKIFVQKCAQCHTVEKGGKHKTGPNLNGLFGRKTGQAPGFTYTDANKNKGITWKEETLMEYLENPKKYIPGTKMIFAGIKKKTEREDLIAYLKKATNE
Sequence of Cytochrome c wild type, P00004 (P00004 whole entry): as the sequence (P00004 whole entry H34N) above, with N34H counted along it

For Cytochrome c H34N, P00004, the denaturant m value runs as follows: (GdnHCl, structure 1AKK) 4.8 kcal/mol/M; under setting [1], 1.7 kcal/mol/M and 3.08 kcal/mol/M; (Urea, structure 1AKK) 2.43 kcal/mol/M. Further, the unfolding free energy was 10.8 kcal/mol (GdnHCl, structure 1AKK); 3.5 kcal/mol and 7.3 kcal/mol under setting [1]; 10.5 kcal/mol (Urea, structure 1AKK). Further, the “denaturant midpoint (higher = more stable)” value (“denaturant midpoint” for short) under setting [1] was 2.07 M and 2.34 M; the “denaturant midpoint” value (Urea, transition: 3, structure 1AKK) was 4 M and 4.81 M.

Consider Cytochrome c wild type, P00004, for which, for the setting “GdnHCl”, the denaturant m value turned out to be 4.39 kcal/mol/M and the unfolding free energy is 9.8 kcal/mol. Moreover, for the setting “GdnHCl, transition: 3”, the denaturant m value was 1.34 kcal/mol/M and 3.05 kcal/mol/M; the “denaturant midpoint” value is 1.5 M and 2.55 M.

Values taken from FireProtDB (doi:10.1016/j.jmb.2006.01.055).
